The values that follow come from paper PMC10058294, “Interaction of SARS-CoV-2 Nucleocapsid Protein and Human RNA Helicases DDX1 and DDX3X Modulates Their Activities on Double-Stranded RNA”.

Several values for one entry are separate records, joined by “and”; a condition that tells them apart may be missing. Identical values can stand only once.

Data set [1] deals with T1, SARS-CoV-2 nucleocapsid protein (Np) (SARS-CoV-2, UniProt P0DTC9 1-419). In words: EMSA; apparent, cooperative fit. As to conditions: protein: recombinant; tags: His (pET30a(+), Ni-NTA purified); chain copies: 2; label: 5'-FAM on the 18 mer.
Data set [2] concerns the target SARS-CoV-2 nucleocapsid protein (Np);DDX3X (SARS-CoV-2;Homo sapiens, UniProt P0DTC9;O00571 1-419;1-662, |). The data set is described as follows: EMSA; Np titrated with fixed DDX3X. As to conditions: protein: recombinant;recombinant; tags: His (pET30a(+), Ni-NTA purified);pET30a(+) vector; label: 5'-FAM on the 18 mer.
The target of data set [3] is SARS-CoV-2 nucleocapsid protein (Np);DDX1 (SARS-CoV-2;Homo sapiens, UniProt P0DTC9;Q92499 1-419;1-740, |). In words: EMSA; Np titrated with fixed DDX1. Conditions: protein: recombinant;recombinant; tags: His (pET30a(+), Ni-NTA purified);pET30a(+) vector; label: 5'-FAM on the 18 mer.
Data set [4] concerns the target T1, SARS-CoV-2 nucleocapsid protein (Np). In words: EMSA. Conditions: protein: recombinant; tags: His (pET30a(+), Ni-NTA purified); chain copies: 2; label: 5'-FAM on the 18 mer.
Data set [5] shares this target. In words: EMSA; time course. As to conditions: protein: recombinant; tags: His (pET30a(+), Ni-NTA purified); chain copies: 2; label: 5'-FAM; single strand.

B1: 18/38 mer FAM partially dsRNA (dsRNA)
RNA 1: AUGAAGGUUUGAGUUGAGUGGAGAUAGUGGAGGGUAGU
RNA 2: CUCAACUCAAACCUUCAU
B1: the Kd in data set [1] is 170 nM; in data set [2], 80 nM; in data set [3] it was 40 nM; in data set [4] it was 193 nM and 300 nM.
In the case of CUCAACUCAAACCUUCAU (ssRNA) [ssRNA 18 mer FAM], the binding result in data set [5] is “binds”.
